Assay results published in US20230272055A1 (Incyte, published 2023).

B1: anti-mutCALR antibody clone 41 (antibody, human IgG1, lambda, V domains shown)
VH: EVQLVQSGAEVKKPGASVKVSCKVSGYTLTELSMHWVRQAPGKGLEWMGLVDPEDGETIYAQKFQGRVTMTEDTSTDTAYMELSSLRSEDTAVYYCAREEWSGDGDDAFDIWGQGTMVTVSS
VL: QSVLTQPPSVSAAPGQKVTISCSGSSSNIGSYSVSWYQQLPGTAPKLLIYDNNKRPSGIPDRFSGSNSGTSATLGITGLQTGDEADYYCGTWDSSLSAWVFGGGTKLTVLG
notes: human IgG1
B2: anti-mutCALR antibody clone 42 (antibody, human IgG1, lambda, V domains shown)
VH: EVQLVQSGAEVKKPGASVKVSCKVSGYTLTELSMHWVRQAPGKGLEWMGLVDPEDGETIYAQKFQGRVTMTEDTSTDTAYMELSSLRSEDTAVYYCAREEWSGDGDDAFDIWGQGTMVTVSS
VL: QSVLTQPPSVSAAPGQKVTISCSGSSSNIGSYSVSWYQQLPGTAPKLLIYDDNKRPSGIPDRFSGSNSGTSATLSITGLQTGDEADYYCGTWDSSLSAWVFGGGTKLTVLG
notes: human IgG1
B3: anti-mutCALR antibody clone 1 (antibody, human IgG1, lambda, V domains shown)
VH: EVQLVQSGAEVKKPGASVKVSCKVSGYTLTELSMQWVRQAPGKGLEWMGGFDPDDGETMYAEKFQGRLTVTEDTSTDTVYMELRSLTSEDTALYFCATSPGYDFFDYWGQGTLVTVSS
VL: SYVLTQPPSVSVAPGKTARITCGGNYIGSKSVHWYQQKPGQAPVLVVYDDGDRPSGIPARFSGSNSGNTATLTISRVEAGDEADYYCQVWDSISDHVVFGGGTKLTVLG
notes: human IgG1
B4: anti-mutCALR antibody clone 2 (antibody, human IgG1, lambda, V domains shown)
VH: EVQLVQSGAEVKKPGASVKVSCKVSGYTLTELSMQWVRQAPGKGLEWMGGFDPDDGETMYAEKFQGRLTVTEDTSTDTVYMELRSLTSEDTALYFCATSPGYDFFDYWGQGTLVTVSS
VL: SYELTQPPSVSVAPGKTARITCGGDNIGSKSVHWYQQKPGQAPVLVVYDDSDRPSGIPERFSGSNSGNTATLTISRVEAGDEADYYCQVWDSSIDHLIFGGGTKVTVLG
notes: human IgG1
B5: anti-mutCALR antibody clone 3 (antibody, human IgG1, lambda, V domains shown)
VH: EVQLVQSGAEVKKPGASVKVSCKVSGYTLTELSMQWVRQAPGKGLEWMGGFDPDDGETMYAERFQGRLTVTEDTSTDTVYMELRSLTSEDTALYFCATSPGYDFFDYWGQGTLVTVSS
VL: SYVLTQPPSVSVAPGQTARITCGGNNIGSKSVHWYQQKPGQAPVLVVYDDSDRPSGIPERFSGSNSGNTATLTINRVEAGDEADYYCQVWDSSNDLLIFGGGTKLTVLG
notes: human IgG1
B6: anti-mutCALR antibody clone 4 (antibody, human IgG1, lambda, V domains shown)
VH: EVQLVQSGAEVKKPGASVKVSCKVSGYTLTELSMQWVRQAPGKGLEWMGGFDPDDGETMYAEKFQGRLTVTEDTSTDTVYMELRSLTSEDTALYFCATSPGYDFFDYWGQGTLVTVSS
VL: SYVLTQPPSVSVAPGQTARITCGGNNIGSKSVHWYQQKPGQAPVLVVYDDSDRPSGIPERFSGSNSGNTATLTINRVEAGDEADYYCQVWDSSNDLLIFGGGTKLTVLG
notes: human IgG1
B7: anti-mutCALR antibody clone 5 (antibody, human IgG1, lambda, V domains shown)
VH: EVQLVQSGAEVKKPGASVKVSCKVSGYTLTELSMQWVRQAPGKGLEWMGGFDPDDGETMYAEKFQGRLTVTEDTSTDTVYMELRSLTSEDTALYFCATSPGYDFFDYWGQGTLVTVSS
VL: SYVLTQPPSVSVAPGQTASITCVGTNFGSKNVHWYQQRPGQAPVLVVYDDSDRPSGIPERFSGSNSGNTATLTISRVEAGDEADYYCQVWDSSSDHLIFGGGTKLTVLG
notes: human IgG1
B8: anti-mutCALR antibody clone 7 (antibody, human IgG1, lambda, V domains shown)
VH: EVQLVQSGAEVKKPGASVKVSCKVSGYTLTELSMQWVRQAPGKGLEWMGGFDPDDGETMYAEKFQGRLTVTEDTSTDTVYMELRSLTSEDTALYFCATSPGYDFFDYWGQGTLVTVSS
VL: SYVLTQPPSVSVAPGQTASITCVGTNFGSKNVHWYQQRPGQAPVLVVYDDSDRPSGIPERFSGSNSGNTATLTINRVEAGDEADYYCQVWDSSNDLLIFGGGTKLTVLG
notes: human IgG1
B9: anti-mutCALR antibody clone 8 (antibody, human IgG1, lambda, V domains shown)
VH: QVQLVQSGAEVKKPGSSVKVSCKVSGYTLTELSMQWVRQAPGKGLEWMGGFDPDDGETMYAEKFQGRLTVTEDTSTDTVYMELRSLTSEDTALYFCATSPGYDFFDYWGQGTLVTVSS
VL: SYELTQPPSVSVAPGQTARITCGGNNIGSKSVHWYQQKPGQAPVLVVYDDSDRPSGIPERFSGSNSGRTATLTISRVEAGDEADYHCQVWDSSSDHLVFGGGTKLTVLG
notes: human IgG1
B10: anti-mutCALR antibody clone 9 (antibody, human IgG1, lambda, V domains shown)
VH: EVQLVQSGAEVKKPGASVKVSCKVSGYTLTELSMQWVRQAPGKGLEWMGGFDPDDGETMYAEKFQGRLTVTEDTSTDTVYMELRSLTSEDTALYFCATSPGYDFFDYWGQGTLVTVSS
VL: SYVLTQPPSVSVAPGQTARIPCGGNNIGSKSVHWYQQKPGQAPVLVVYDDRDRPSGIPERFSGSNSGNTATLTINRVEAGDEADYYCQVWDSSNDLLIFGGGTKLTVLG
notes: human IgG1
B11: anti-mutCALR antibody clone 10 (antibody, human IgG1, lambda, V domains shown)
VH: EVQLVQSGAEVKKPGASVKVSCKVSGYTLTELSMQWVRQAPGKGLEWMGGFDPDDGETMYAEKFQGRLTVTEDTSTDTVYMELRSLTSEDTALYFCATSPGYDFFDYWGQGTLVTVSS
VL: SYELTQPPSVSVAPGQTARIPCGGNNIGSEGVHWYQQKPGQAPVLVVYDDSDRPSGIPERFSGSNSGNTATLTISRVEAGDEADYYCQVWDSSNDLLIFGGGTKLTVLG
notes: human IgG1
B12: anti-mutCALR antibody clone 12 (antibody, human IgG1, lambda, V domains shown)
VH: EVQLVQSGAEVKKPGASVKVSCKVSGYTLTELSMQWVRQAPGKGLEWMGGFDPDGGETMYAEKFQGRLTVTEDTSTDTVYMELRSLTSEDTALYFCATSPGYDFFDYWGQGTLVTVSS
VL: SYVLTQPPSVSVAPGQTARVSCGGNNIGSKSVNWYRQKPGQAPVLVIYDDSDRPSGIPERFSGSNSGNTATLTINRVEAGDEADYYCQVWDSSNDLLIFGGGTKLTVLG
notes: human IgG1
B13: anti-mutCALR antibody clone 13 (antibody, human IgG1, lambda, V domains shown)
VH: QVQLVQSGAEVKKPGASVKVSCKVSGYTLTELSMQWVRQAPGKGLEWMGGFDPDDGETMYAEKFQGRLTVTEDTSTDTVYMELRSLTSEDTALYFCATSPGYDFFDYWGQGTLVTVSS
VL: not shown
notes: human IgG1
B14: anti-mutCALR antibody clone 16 (antibody, human IgG1, lambda, V domains shown)
VH: EVQLVQSGAEVKKPGASVKVSCKVSGYTLTELSMQWVRQAPGKGLEWMGGFDPDDGETMYAEKFQGRLTVTEDTSTDTVYMELRSLTSEDTALYFCATSPGYDFFDYWGQGTLVTVSS
VL: SYVLTQPPSVSVAPGKTARITCGGNNTGSKSVHWYQQKPGQAPVLVVYDDSDRPSGIPERFSGSNSGNTATLTINRVEAGDEADYYCQVWDSSNDLLIFGGGTKLTVLG
notes: human IgG1
B15: anti-mutCALR antibody clone 18 (antibody, human IgG1, lambda, V domains shown)
VH: EVQLVQSGAEVKKPGASVKVSCKVSGYTLTELSMQWVRQAPGKGLEWMGGFDPDDGETMYAEKFQGRLTVTEDTSTDTVYMELRSLTSEDTALYFCATSPGYDFFDYWGQGTLVTVSS
VL: SYVLTQPPSVSVAPGKTARITCGGNNIGSKSVHWYQQKPGQAPVLVVYDDSDRPLGIPERFSGSNSGNTATLTINRVEAGDEADYYCQVWDSSNDLLIFGGGTKLTVLG
notes: human IgG1
B16: anti-mutCALR antibody clone 19 (antibody, human IgG1, lambda, V domains shown)
VH: EVQLVQSGAEVKKPGASVKVSCKVSGYTLTELSMQWVRQAPGKGLEWMGGFDPDDGETMYAEKFQGRLTVTEDTPTDTVYMELRSLTSEDTALYFCATSPGYDFFDYWGQGTLVTVSS
VL: SYVLTQPLSVSVALGQTARITCGGSNIGDIRVHWYQQKPGQAPVLVVYDDSDRPSGIPERFSGSNSGNTATLTINRVEAGDEADYYCQVWDSSNDLLIFGGGTKLTVLG
notes: human IgG1
B17: anti-mutCALR antibody clone 20 (antibody, human IgG1, lambda, V domains shown)
VH: EVQLVQSGAEVKKPGASVKVSCKVSGYTLTELSMQWVRQAPGKGLEWMGGFDPDDGETMYAEKFQGRLTVTEDTSTDTVYMELRSLTSEDTALYFCATSPGYDFFDYWGQGTLVTVSS
VL: SYVLTQPPSVSVAPGKTARITCGGNNIGSKGVHWYQQKPGQAPVLVVYDDSDRPSGIPERFSGSNSGNTATLTINRVEAGDEADYYCQVWDSSNDLLIFGGGTKLTVLG
notes: human IgG1
B18: anti-mutCALR antibody clone 21 (antibody, human IgG1, lambda, V domains shown)
VH: EVQLVQSGAEVKKPGASVKVSCEVSGYTLTELSMQWVRQAPGKGLEWMGGFDPDDGETMYAEKFQGRLTVTEDTSTDTVYMELRSLTSEDTALYFCATSPGYDFFDYWGQGTLVTVSS
VL: SYVLTQPPSVSVAPGQTARVSCGGNNIGSKSVNWYRQKPGQAPVLVIYDDSDRPSGIPERFSGSNSGNTATLTISRVEAGDEADYYCQVWDSSNDLLIFGGGTKLTVLG
notes: human IgG1
B19: anti-mutCALR antibody clone 22 (antibody, human IgG1, lambda, V domains shown)
VH: EVQLVQSGAEVKKPGASVKVSCKVSGYTLTELSMQWVRQAPGKGLEWMGGFDPDDGETMYAEKFQGRLTVTEDTSTDTVYMELRSLTSEDTALYFCATSPGYDFFDYWGQGTLVTVSS
VL: SYVLTQPPSVSVAPGKTARITCGGNNIGSKNVHWYQQKPGQAPVLVVYDDSDRPSGIPERFSGSNSGNTATLTINRVEAGDEADYYCQVWDSSNDLLIFGGGTKLTVLG
notes: human IgG1

These binders were tested against T1, Recombinant MBP-mutCALR Type 1 fusion protein (human) (assay: SPR, IgG captured, 1:1 fit, Exp. 1).
T1 construct: custom made at Cepter; also called recombinant mutCALR protein
Description: Experiment 1: Recombinant MBP-mutCALR Type 1 fusion protein was custom made at Cepter (cepterbiopartners.com). Data for the interaction of antibodies with recombinant MBP-mutCALR Type 1 fusion protein were collected at 25° C. on a Biacore 8K instrument (Cytiva, Marlborough, Mass.), and all reagents were obtained from Cytiva unless otherwise specified. The experiments were conducted using Tris-buffered saline (pH 7.2), 0.005% Surfactant P20, 1 mM CaCl₂) as running buffer. To prepare the capture surfaces, anti-human IgG (Fc) antibodies (Product #29234600) was amine-coupled onto a CM4 chip (Product #BR100534) under standard conditions using an Amine Coupling Kit (Product #BR100050). […] The kinetics parameters were obtained by applying 1:1 binding model to fit the data from multiple-cycle injection experiments using Biacore Insight Evaluation software.

In order of falling Kd:
1. B3  14.2 nM
2. B19  12.6 nM
3. B14  12.5 nM
4. B13  10.1 nM
5. B16  9.04 nM
6. B4  7.58 nM
7. B2  6.97 nM
8. B1  4.88 nM
9. B9  4.58 nM
10. B17  4.46 nM
11. B6  4.33 nM
12. B7  4.33 nM
13. B12  4.08 nM
14. B8  3.83 nM
15. B5  3.45 nM
16. B10  2.99 nM
17. B15  2.66 nM
18. B18  2.58 nM
19. B11  1.38 nM

In order of falling koff:
1. B14  0.0354 s⁻¹
2. B13  0.0301 s⁻¹
3. B3  0.0196 s⁻¹
4. B16  0.0132 s⁻¹
5. B4  0.0123 s⁻¹
6. B10  0.00904 s⁻¹
7. B1  0.00811 s⁻¹
8. B9  0.00802 s⁻¹
9. B5  0.00716 s⁻¹
10. B6  0.00704 s⁻¹
11. B18  0.00664 s⁻¹
12. B15  0.00628 s⁻¹
13. B8  0.00609 s⁻¹
14. B17  0.00498 s⁻¹
15. B2  0.00452 s⁻¹
16. B7  0.00405 s⁻¹
17. B11  0.00292 s⁻¹
18. B19  0.00289 s⁻¹
19. B12  0.0024 s⁻¹

In order of falling kon:
1. B10  3.02e+06 M⁻¹ s⁻¹
2. B13  2.99e+06 M⁻¹ s⁻¹
3. B14  2.84e+06 M⁻¹ s⁻¹
4. B18  2.57e+06 M⁻¹ s⁻¹
5. B15  2.37e+06 M⁻¹ s⁻¹
6. B11  2.11e+06 M⁻¹ s⁻¹
7. B5  2.08e+06 M⁻¹ s⁻¹
8. B9  1.75e+06 M⁻¹ s⁻¹
9. B1  1.66e+06 M⁻¹ s⁻¹
10. B4  1.63e+06 M⁻¹ s⁻¹
11. B6  1.63e+06 M⁻¹ s⁻¹
12. B8  1.59e+06 M⁻¹ s⁻¹
13. B16  1.46e+06 M⁻¹ s⁻¹
14. B3  1.38e+06 M⁻¹ s⁻¹
15. B17  1.12e+06 M⁻¹ s⁻¹
16. B7  935000 M⁻¹ s⁻¹
17. B2  649000 M⁻¹ s⁻¹
18. B12  589000 M⁻¹ s⁻¹
19. B19  229000 M⁻¹ s⁻¹
